Data on 40 sequences can be found in the nanobody polyreactivity screen of Harvey et al. (2022).

The nature of this series: yeast display, Sf9 membrane polyspecificity reagent, FACS + sequencing; frameworks hold sequencing errors. The method in brief:
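A synthetic nanobody library was expressed on Saccharomyces cerevisiae BJ5465 by galactose induction for 36–48 hours. The library was stained for 1 hour at 4 °C with 10% biotinylated, detergent-solubilized Sf9 membrane reagent and enriched with streptavidin microbeads before FACS. Low and high (top ~1%) gates were set on anti-HA fluorescence for expression and streptavidin fluorescence for reagent binding, and each polyreactivity label reflects the gate of origin.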
Regarding “QVQLVESGGGLVQAGGSLRISSAASGFTFTPNAKGWYRQAPGKERELVAVITWNGGTTYYADSVKGRFTISRDNAQNTVYLQMNSLKPEDTAVYYCNADGLILYDYWGHGTQVTVSS”, the “polyreactivity (PSR sort gate)” value is recorded as “low polyreactivity”. The result for “QVQLVESGGGLVQAGGSLRLSCAASGRTFFKYAMGWYRQAPGKERELVAAITWGGDRTFYADSVKGRFTISRDNAKNTVYLQMNSMKADETAVYYCAAEVLPNVYVYQSARGFYYWGQGTQVTVSS” reads “high polyreactivity”; that for “QVQLVESGGGLVQAGGSLRLSCAASGFIIAGYAMGWYRQAHGKEMELVAAISSRGGSTYYADSVKGRFTISRDNAKNTFYLQMNSLKPEDTSVYYCARTTPTGRQYRRYDYWGQGTQVTESS”, “low polyreactivity”. Take “QVQLVESGGGLVQAGGSLRLSCAASGFIFIHNAMGWYRQAPGKERELVAAISYSGGSTYYADSVKGRFTISRDNAKNTVYLQMNSLKPEDTAVYYCNRVQYYRADRMDYWGQGTQVTVSS”: the “polyreactivity (PSR sort gate)” value is given as “low polyreactivity”. The result for “QFQLVESGGGLVQAGGSLRLSSAASGFTFIRYAMGWYRPAPGKERELVAAITVSGTRTYYADSVKGRFTISRDNAKNTVYLQMNSLKPEDTAVYYCNARDVYTGYGMGYWGQGTQVTVSS” reads “high polyreactivity”. The result for “QVQLVESGGGLVQAGGSLRLSCAASGSTFISYAMGWYRQAPGKERELVAAISSGGGRTSYADSVKGRFTISRDNAKNTVYLQMNSLKPEDTAVYYCNTKKLPYAEGYWGQGTQVTVSS” reads “low polyreactivity”; that for “QVQLVESGGGLVQAGGSLRLSCAASGSIFGFNAMGWYRPAPGKERELVAGITSGDRTNYADSVKGRFTISRDNAKNTVYLQMNSLKPEDTAVYYCAARKYVFFKMYYWGQGTQVTVSS”, “low polyreactivity”. For the sequence “QVQLVESGGGLVQAGGSLRLSCAASGSIFFSNVMGWYRQAPGKERELVAAIRWSGDSTYYADSVKRRFTISRDNAKNTVYLQMNSLKPEDTAVYYCARDVYGSVSVSGYYYWGQGTQVTVSA”, the “polyreactivity (PSR sort gate)” value is recorded as “low polyreactivity”.

Take “QVQLVESGGGLVQAGGSLRLSCAASVRTFTPYAMGWYRQAPGKEREFVAAISIVGRKKYADSVKGRFTISRDNAKNTVYLQMNSLKPEDTEVYYCNAQDSRDRKFYWGYTRGHWGLGTQVTVSS”: the “polyreactivity (PSR sort gate)” value was “low polyreactivity”.

Turning to “QVQLVESGGGLVQAGGSLRLSCAASGRTSSTYDMGWYRQAPGKERELVADITWSGGSTYYADSVKGRFTISRDNAKNTVYLQMNRLKPEDTAVYYCAAPFVKFVGSLVYAGYDSWGQGTQVTVSS”, the “polyreactivity (PSR sort gate)” value was “low polyreactivity”.

As to “QVQHVESGRGLVQAGGSLRLSCAASGIIFLYYAMGWYREAPGKVRELVAAITGSGGTTYYADSVKGRFTISRDNAMNTVYLQMNSLKPEDTAVYYCATPPPEVWQRWYREYDYWGQGTQVTVSS”, the “polyreactivity (PSR sort gate)” value was “low polyreactivity”. With “QVQLVESGGGLVQAGGSLRLSCAASGSTFLYNALGWYRPAPGKEREFVAAISGSGGTTYYADSVKGRFTISRDNAKNTVYLQMNSLKPEDTAVYYCAVSQSWYWYYASDYWGQGTQVTVSS”, the “polyreactivity (PSR sort gate)” value is “low polyreactivity”.

“QVQLVESGGGLVQAGGSLRLSCAASGSILYGNDMGWYRQAPGKERELVATITSSDSTYYADSVKGRFTISRDNAKNTVYLQMNSLKPEDTAVYYCAADSSEWLLKDDYWGQGTQVTVSS”: the “polyreactivity (PSR sort gate)” value was “low polyreactivity”. The same measure for “QVQLVESGGGLVQAGGSLRLSCAASGSTFHPNGMGWYRQAPGKERELVAAIRRSGGSTYYADSVKGRFTISRDNAKNTVYLQMNSLKPEDTAVYYCAAKHYYYSPYVRYDPPPGYYWGQGTQVTVSS”: “high polyreactivity”. The same measure for “QVQLVESGGGLVQAGGSLRLSCAASGIIFRSNAMGWYRQAPGKERELVAAISWSGSSTYYADSVKGRFTISRDNAKKTVYLQMNSLKPEDTAVYYCAAYDFYGIYWGQGTQVTVSS”: “low polyreactivity”; for “QVQLVESGGGLVQAGGSLRLSCAASGSILIHYTMGWYRQAPGKERELVAAISSTGGSTYYADSVKGRFTISRDNAKNTVYLQMNSLKPEDTAVYYCNAKQYWYYFWAYQQRDVESDYWGQGTQVTVSS”: “low polyreactivity”. For “QVQLVESGGGLVQAGGSLRLSCAASGLIFRWYAMGWYRQAPGKETELVAAINYSGGRTYYADSVKGRFTISRDNAKNTVYLQMNSLKPEDTAVYYCNAVAVPSTYDYWGQGTQVTVSS”, the “polyreactivity (PSR sort gate)” value is listed as “low polyreactivity”. The result for “QVQLVESGGGLVQAGGSLRLSCAASGSIFGRYVMGWYRQAPGKERELVAAINRSGGRTYYADSVKGRFTISRDTAKNTVYLQMNSLKPEDTAVYYCATYTRSSASKEVPYDYWGQGTEVTVSS” reads “high polyreactivity”; that for “QFQLVESGGGFVQAGGSLRLSCAASGYTFQRYAMGWYRQAPGKERELVATISKRGGSTYYADSVKGRFTISRDNAKNTDYLQMNSLKPEDTAVYYCNKLRGLHNGYDYWGQGTQVTVSS”, “high polyreactivity”. For “QVQLVESGGGLVQAGGSLRLSCAASGRIFYDYAMGWYRQAPGKERELVAAISGSGGSTYYADSVKGRFTISRDKAKNTVYLQMNSLQPEDTEVYYCNRYTTRYYPGGDYWGHGTQVTVSS”, the “polyreactivity (PSR sort gate)” value is recorded as “high polyreactivity”. The same measure for “QVQLVESGGGLVQAGGSLRLSCAASGITSKQYAMGWYRQAPGKEWELVAAISGSGTRTYYADSVKGRFTISRDNAKNTVYLQMNSQKPEDTAVYYCAAYYHLVVKRLRYDYWGQGTQVTVSS”: “high polyreactivity”; for “QVQHVESGGGLVQAGGSLRLSCAASGFTFAWNAMGWYRQAPGKERELVAAITWGDNSTYYADSVKGRFTISRDNAKNTVYLQMNSLKPEDTAVYYCAARVTHWYYLFGYDYWGQATQVTVSS”: “low polyreactivity”. The same measure for “QVQLVESGGGLVQAGGSHRLSCAASGSIFALYAMGWYREAPGKEREFVAAISWNGGRTYYADSVKGRFTISRDNAKNTVYLQMNSLKPEDTAVYYCAARSWYAYDYWGQGTQVTVSS”: “high polyreactivity”; for “QVQLVESGGGLVQAGGSLRLSCAASGIIFRSNAMGWYRQAPGKERELVAAISRTGRTYYADSVKGRFTISRDNAKNTVNLQMNSLKPEDTAVYYCAVGIVQRDSRYYYWGQGTQVTVSS”: “high polyreactivity”; for “QVQLVESGGGLVQAGGSLRLSCAASGSTFVRYAMGWYRQAPGKERELVAAISGGGSTSYADSVKGRFTISRDNAKNTVYLQMNSLKPEDTAVYFCAKAGYRSEFEYWGQGTQVTLSS”: “low polyreactivity”. The result for “QVQLVESGGGLVQAGGSLRLSCAASGFTFASNDMGWYIPAPGKERELVSAITKGGGRTYYADSVKGRFTISRDNAKNTVYLQMNSLKPEDTAVYYCAASHDKRRQYFVGQSAFDYWGQGTQVTVSS” reads “low polyreactivity”; that for “QVQLVESGGGLVQAGGSLRLSCAASGNIFFGYAMGWYRQAPGKEREFVASITKIGGSTYYADSVQGRFTISRDNAKNTVYLQMNSLKPEHTAVYYCAKTILYDCDYWGQGTQVTVSS”, “low polyreactivity”. In the case of “QVQLVESGGGLVQAGGSLRLSCAASGSTLAKKAMGWYRQEPGKERELVAAISKNGGTTYYADSVKGRFTISRDNAKNTVYLQMNSLKPEDTAVYYCAVSIWGWFASGFDYWGQGTQVTVSS”, the “polyreactivity (PSR sort gate)” value is given as “high polyreactivity”.

For the sequence “QVQLVESGGGLDQAGGSLRLSCAASGFTFYRNAMGWYRQAPGKERELVAAITSGGSTYYADSVKGRFTISRDNAKNTVYLQMNSLKPEDTAVYYCAAYVWSGWGHWFYYWGQGTQVTVSS”, the “polyreactivity (PSR sort gate)” value was “high polyreactivity”.

In the case of “QVQLVESGGGLVQAGGSLRLSCAAYVFIFYVYAMGWYRQAHGKERELVAAISGGGDSTYYADSVKGRFTISRDNAKNTVYLQMNSLKPEDTAVYYCATRRYPEVVNGEYGYWGQGTQVTVSS”, the “polyreactivity (PSR sort gate)” value is on record as “low polyreactivity”.

Take “QVQLVESGGGLVQAGGSLRLSCAASGITFARYAMGWYRQAPGKERELVAAITRSGGSTNYADSVKGRFTISRDNAKNTVYLQMNSLKPEDTAVYYCAAAGYRFRFVYSRYEYWGQGTQVTVSS”: the “polyreactivity (PSR sort gate)” value was “high polyreactivity”. The result for “QVQLVESGGGLVQAGGSLRLSCAASGSIFDGYAMRWYRQAPGKERELVAAIRWGDGITYYADSVKGRFTISRDIAKNTVYLLMNSLKPVDTAVYYCAAVQHGHEPRVQDSYDYWGQGTQVTVSS” reads “low polyreactivity”; that for “QVQLVESGGGLVQAGGSLRLSCAASGFTFTSNAMGWYRQAPGKEREFVADISNIGGDTTYADSVKGRFTISRDNAKNTVYLQMNSLKPEDTAVYYCNADFAFIENDYWGQGTQVTVSS”, “low polyreactivity”. The same measure for “QVQLVESGGGLVQAGGSLRLSCAASGSIFVYNAMGWYRQAPGKERELVAGITFIGGSTYYADSVKGRFTISRDTAKNTVYLPMNSLKPEDTAVYYRNADGAPGIFYGYDSWGQGTQVTVSS”: “low polyreactivity”; for “QVQLVESGGGLVQAGGSLRLSCAASGRTFYKYTMGWYRQAPGKERELVAAITTSGGGTYYADSVKGRFTISRDNAKNTVYIQMNSLKPEDTAVYYCAARYRELRTEYYYWGQGTQVTVSA”: “high polyreactivity”.

With “QVQLVESGGGLVQAGGSLRLSCAASGGTFGVNAMGWYRQAPGKERELVAAISSSGGRTYYADSVKGRFTISRDNAKNTVFLQMNSLKPEDTAVYYCAARNYFWGQGTQVTVSS”, the “polyreactivity (PSR sort gate)” value is given as “low polyreactivity”. The same measure for “QVQLVESGGGLVQAGGSLRLSCAASGSTLLANAMGWYRQAPGKERELVATITNSGGGTYYADSVKGRFTISRDNAKNTVYLQMNSLKPEDTAVYYCAAVYTGRSQYSKWRYEYWGQGTQVTVSS”: “low polyreactivity”.

Regarding “QVQLVESGGGLFQAGGSLRLSCAASGSTFGNNAMGWYRQAPGKERELVAAISRSGGNTYYADSVKGRFTISRDNAKNTVYLQMNSLKPEDTAVYYCAAGKLYAAGVYYLRRLYYWGQGTQVTVSS”, the “polyreactivity (PSR sort gate)” value is “high polyreactivity”. The result for “QVQLVESGGGLVQAGGSLRLSCAASGGTFFSYTKGWYRQAPGKERELVAAITWSGASTYYADSVKGRFTISRDNAKNTVYIQMNSLKPEDTAVYYCAADSYDSPGYLTTSTYRLDYWGQGTHVTVSS” reads “low polyreactivity”. As to “QVQFVESGGGLVQARCSLRLSCAASGFIFGVYAMGWYRQAPGKERELVAAINSGGGSTYYADSVKGRFTISRDNAKNTVYLQMNSLKPEDTAVYYCAVRYKSWYGFNYWGQGTQVTVSS”, the “polyreactivity (PSR sort gate)” value was “high polyreactivity”.
